Laboratory results taken from patent US9969998B2, “Compositions of adenosine deaminase-2 (ADA2), variants thereof and methods of using same” (Halozyme, Inc., priority 2014, dated 2018).
Where a chain is given by its changes, count along the chain named. Names and notes keep the numbering of the source.

B1: R23E: ADA2 variant SEQ ID NO:30 (protein)
chain: IDETRAHLLLKEKMMRLGGELVLNTKEELANERLMTLKIAEMKEAMRTLIFPPSMHFFQAKHLIERSQVFNILRMMPKGAALHLHDIGIVTMDWLVRNVTYRPHCHICFTPRGIMQFRFAHPTPRPSEKCSKWILLEDYRKRVQNVTEFDDSLLRNFTLVTQHPEVIYTNQNVVWSKFETIFFTISGLIHYAPVFRDYVFRSMQEFYEDNVLYMEIRARLLPVYELSGEHHDEEWSVKTYQEVAQKFVETHPEFIGIKIIYSDHRSKDVAVIAESIRMAMGLRIKFPTVVAGFDLVGHEDTGHSLHDYKEALMIPAKDGVKLPYFFHAGETDWQGTSIDRNILDALMLNTTRIGHGFALSKHPAVRTYSWKKDIPIEVCPISNQVLKLVSDLRNHPVATLMATGHPMVISSDDPAMFGAKGLSYDFYEVFMGIGGMKADLRTLKQLAMNSIKYSTLLESEKNTFMEIWKKRWDKFIADVATK
modifications: human ADA2 R20E, mature numbering
B2: K374D: ADA2 variant SEQ ID NO:20 (protein)
chain: B1 chain with E20R, K371D
modifications: human ADA2 K371D, mature numbering
B3: K374E: ADA2 variant SEQ ID NO:21 (protein)
chain: B1 chain with E20R, K371E
modifications: human ADA2 K371E, mature numbering
B4: PEG-K374D: rHuADA2-K374D (SEQ ID NO:20) PEGylated on surface exposed lysines with linear PEG-20K (conjugate)
chain: B1 chain with E20R, K371D
modifications: linear PEG-20K on surface lysines; human ADA2 K371D, mature numbering
B5: WT ADA2: wild type recombinant human adenosine deaminase 2 with FLAG tag, mature ADA2 SEQ ID NO:5 (protein, listed as Homo sapiens)
chain: B1 chain with E20R
modifications: FLAG tag; ADA2 mature protein
B6: S265N: ADA2 variant SEQ ID NO:54 (protein)
chain: B1 chain with E20R, S262N
modifications: human ADA2 S262N, mature numbering

Experiment: Heparin-affinity chromatography (heparin-Sepharose, SDS-PAGE)
Format: binding
Details: not given
With B1 the “heparin binding compared to WT” value was “attenuated heparin binding”. In the case of B2, the “heparin binding compared to WT” value is reported as “attenuated heparin binding”. In the case of B3, the “heparin binding compared to WT” value is reported as “attenuated heparin binding”.

Same assay, conditions: compared to WT rHuADA2; 0.3 mg/mL protein
In the case of B1, the “Heparin Column Binding” value is reported as “Reduced”. With B2 the “Heparin Column Binding” value was “Reduced”. With B3 the “Heparin Column Binding” value was “Reduced”.

Experiment: Heparin binding capture ELISA (biotin-heparin on streptavidin plate)
Details: PEGylated and non-PEGylated forms (Table 22)
Procedure: Heparin binding of PEGylated rHuADA2 or variants was assessed by capture ELISA. Binding of rHuADA1 was assessed as a negative control. 100 μL of 0.2 mg/mL biotin-heparin (Sigma-Aldrich, St. Louis, Mo.; Cat No. B9806-10MG) was added to a streptavidin coated 96-well plate (Thermo Fisher Scientific, Rockford, Ill.; Cat. No. 15520), and incubated at room temperature for 1 hour. The plate was washed 6 times with PBS. Then, 150 μL of […] rHuADA2 was added to the heparin coated plate, titrated in 3× serial dilutions, and incubated at room temperature for 2 hours. The plate was then washed 6 times with PBS. A 1000× dilution of goat HRP-anti-FLAG pAb (Abcam, Cambridge, UK; Cat. No. Ab1238) was added to the ELISA plate and incubated at room temperature for 1 hour. The ELISA plate was then washed 6 times with phosphate buffered saline with Tween (PBST) and developed with the 3,3′,5,5′-Tetramethylbenzidine (TMB) substrate solution (Pierce, Thermo Fisher Scientific, Rockford, Ill.) according the manufacturer's instructions and reading the optical density at 450 nm (OD450) on a plate reader.
In the case of B1, the “Average OD450, heparin binding capture ELISA” value (“Average OD450” below) is reported as 0.71. With B2 the “Average OD450” value was 0.87. For B4, the “Average OD450” value was 0.15. In the case of B5, the “Average OD450” value is reported as 2.31.

Experiment: Adenosine deaminase (ADA) enzymatic activity assay kit
Format: biochemical
Details: not given
For B1, the “enzymatic activity relative to WT rHuADA2” value was “improved enzymatic activity”. With B2 the “enzymatic activity relative to WT rHuADA2” value was “improved enzymatic activity”. With B3 the “enzymatic activity relative to WT rHuADA2” value was “improved enzymatic activity”.

Same assay, conditions: PEGylated and non-PEGylated forms (Table 23)
For B1, the “adenosine deaminase activity mU/mL” value was 129.9 mU/mL. In the case of B2, the “adenosine deaminase activity mU/mL” value is reported as 162.9 mU/mL. For B4, the “adenosine deaminase activity mU/mL” value was 142 mU/mL. With B5 the “adenosine deaminase activity mU/mL” value was 121.6 mU/mL.

Same assay, conditions: Table 23
For B1, the “% of WT adenosine deaminase activity” value was 106.8%. With B2 the “% of WT adenosine deaminase activity” value was 134%. In the case of B4, the “% of WT adenosine deaminase activity” value is reported as 116.8%. With B5 the “% of WT adenosine deaminase activity” value was 100%.

Same assay, conditions: protein diluted to 5 μg/mL, serially diluted 2 fold (Table 21)
For B1, the “adenosine deaminase activity mU/mL” value was 161.6 mU/mL and the “ΔA/min, adenosine deaminase activity” value was 70.2. In the case of B2, the “adenosine deaminase activity mU/mL” value is reported as 269.8 mU/mL and the “ΔA/min, adenosine deaminase activity” value is reported as 117.3. With B3 the “adenosine deaminase activity mU/mL” value was 313.8 mU/mL and the “ΔA/min, adenosine deaminase activity” value was 136.5. For B5, the “adenosine deaminase activity mU/mL” value was 78 mU/mL and the “ΔA/min, adenosine deaminase activity” value was 33.9.

Same assay, conditions: purified protein at 5 μg/mL
For B5, the “Adenosine deaminase activity mU/ml” value was 78 mU/ml and the “Adenosine deaminase activity ΔA/min” value was 33.9 ΔA/min. With B6 the “Adenosine deaminase activity mU/ml” value was 164.8 mU/ml and the “Adenosine deaminase activity ΔA/min” value was 71.7 ΔA/min.

Same assay, conditions: purified protein at 5 μg/mL; compared to WT-ADA2
In the case of B5, the “% of WT activity” value is reported as 100%. With B6 the “% of WT activity” value was 211%.

Same assay, conditions: relative to rHuADA2 WT (Table 21)
With B1 the “% activity vs. WT” value was 207.1%. With B2 the “% activity vs. WT” value was 345.9%. For B3, the “% activity vs. WT” value was 402.3%. In the case of B5, the “% activity vs. WT” value is reported as 100%.

Experiment: Thermal stability by differential scanning fluorimetry (DSF)
Format: physicochemical
Details: not given
Procedure: The stability of the rHuADA2 WT and variants was measured by differential scanning fluorimetry (DSF) at increasing temperatures. DSF measures conformational stability, which correlates with thermal stability. The melting temperature (Tm) in DSF is defined as the midpoint of the protein unfolding transition.
Non-PEGylated WT rHuADA2, non-PEGylated rHuADA2 variants, and PEGylated forms of WT rHuADA2 and rHuADA2 variants were prepared at concentrations of 0.1-1 mg/mL and mixed with the ROX™ protein thermal shift dye (Applied Biosystems, Carlsbad, Calif.; Cat. No. 4461146) to a final dye concentration that corresponds to a 125-fold dilution of the stock ROX™ solution. Protein samples were then loaded into 96-well plate at a volume of 20 μL/well in triplicate. A ViiA7 RT-PCR System (Applied Biosystems, Carlsbad, Calif.) was used to measure the shift in fluorescence as the temperature of the samples were increased. The reactions were subjected to the following steps: incubation at 25° C. for 2 min; ramping of temperature from 25 to 99° C. at a rate of 0.05° C. per second; followed by a 99° C. incubation for 2 min. The wavelengths used for emission and excitation were 623 nanometers (nm) and 580 nm, respectively.
With B3 the “Tm higher than WT ADA2” value was 1.4 °C.

Same assay, conditions: 0.1-1 mg/mL protein
With B1 the “Tm, melting temperature by DSF” value was 65.2 °C. With B2 the “Tm, melting temperature by DSF” value was 66.8 °C. With B3 the “Tm, melting temperature by DSF” value was 69.7 °C. With B4 the “Tm, melting temperature by DSF” value was 67.81 °C. With B5 the “Tm, melting temperature by DSF” value was 67.1 °C. With B6 the “Tm, melting temperature by DSF” value was 60.8 °C.
